Source: paper PMC4287381 (Virology, 2009)

Target: GST-p53 C-terminal domain (residues 300–393) (human, UniProt P04637 300-393)
Test: pull-down

Sequence of GST-p53 C-terminal domain (residues 300–393) (P04637 300-393): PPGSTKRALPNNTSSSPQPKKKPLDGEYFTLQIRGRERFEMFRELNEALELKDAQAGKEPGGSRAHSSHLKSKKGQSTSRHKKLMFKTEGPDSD

B1: Full-length EBNA3C, in vitro translated, 35S-labelled (natural protein)
chain: MESFEGQGDSRQSPDNERGDNVQTTGEHDQDPGPGPPSSGASERLVPEESYSRDQQPWGQSRGDENRGWMQRIRRRRRRRAALSGHLLDTEDNVPPWLPPHDITPYTARNIRDAACRAVKQSHLQALSNLILDSGLDTQHILCFVMAARQRLQDIRRGPLVAEGGVGWRHWLLTSPSQSWPMGYRTATLRTLTPVPNRVGADSIMLTATFGCQNAARTLNTFSATVWTPPHAGPREQERYAREAEVRFLRGKWQRRYRRIYDLIELCGSLHHIWQNLLQTEENLLDFVRFMGVMSSCNNPAVNYWFHKTIGNFKPYYPWNAPPNENPYHARRGIKEHVIQNAFRKAQIQGLSMLATGGEPRGDATSETSSDEDTGRQGSDVELESSDDELPYIDPNMEPVQQRPVMFVSRVPAKKPRKLPWPTPKTHPVKRTNVKTSDRSDKAEAQSTPERPGPSEQSSVTVEPAHPTPVEMPMVILHQPPPVPKPVPVKPTPPPSRRRRGACVVYDDDVIEVIDVETTEDSSSVSQPNKPHRKHQDGFQRSGRRQKRAAPPTVSPSDTGPPAVGPPAAGPPAAGPPAAGPPAAGPPAAGPPAAGPRILAPLSAGPPAAGPHIVTPPSARPRIMAPPVVRMFMRERQLPQSTGRKPQCFWEMRAGREITQMQQEPSSHLQSATQPTTPRPSWAPSVCALSVMDAGKAQPIESSHLSSMSPTQPISHEEQPRYEDPDAPLDLSLHPDVAAQPAPQAPYQGYQEPPAPQAPYQGYQEPPPPQAPYQGYQEPPAHGLQSSSYPGYAGPWTPRSQHPCYRHPWAPWSQDPVHGHTQGPWDPRAPHLPPQWDGSAGHGQDQVSQFPHLQSETGPPRLQLSLVPLVSSSAPSWSSPQPRAPIRPIPTRFPPPPMPLQDSMAVGCDSSGTACPSMPFASDYSQGAFTPLDINATTPKRPRVEESSHGPARCSQATAEAQEILSDNSEISVFPKDAKQTDYDASTESELD
modifications: 35S methionine label
fold interaction against the DNA binding domain of p53 (residues 100–300): 1.7 fold
